Read-outs that look alike come from different tables or passages of the source.
What was measured:
Assay in all cases: SPR
Hck (2PA-YEEI) [1] = molecular target: T1, Hck (2PA-YEEI) (UniProt P08631 1-526, C-terminal tail tyrosine of the YEEI motif constitutively phosphorylated; autophosphorylated at the activation loop tyrosine (Tyr-411 of Hck))
Hck (2PA-YEEI) [2] = molecular target: T1, Hck (2PA-YEEI); remark: listed apart in the source
Hck (2PA-YEEI) [3] = molecular target: T1, Hck (2PA-YEEI); remark: listed apart in the source

T1 sequence (P08631 other isoform, or with tags, fused parts or gaps): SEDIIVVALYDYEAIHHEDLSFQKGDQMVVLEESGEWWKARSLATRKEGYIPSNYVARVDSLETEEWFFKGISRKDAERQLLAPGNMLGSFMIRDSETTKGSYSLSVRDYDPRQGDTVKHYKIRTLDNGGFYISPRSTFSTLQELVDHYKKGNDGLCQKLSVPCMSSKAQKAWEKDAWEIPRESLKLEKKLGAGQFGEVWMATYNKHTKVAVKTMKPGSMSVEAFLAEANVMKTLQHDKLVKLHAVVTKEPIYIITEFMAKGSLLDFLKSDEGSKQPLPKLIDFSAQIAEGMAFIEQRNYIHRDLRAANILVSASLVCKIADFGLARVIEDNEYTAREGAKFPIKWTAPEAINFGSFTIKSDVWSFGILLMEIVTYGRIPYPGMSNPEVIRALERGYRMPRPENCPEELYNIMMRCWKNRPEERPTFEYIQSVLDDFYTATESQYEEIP

| koff (Hck (2PA-YEEI) [1]) | Kd (Hck (2PA-YEEI) [2]) | Kd (Hck (2PA-YEEI) [3]) | Binder |
| --- | --- | --- | --- |
| 0.000322 s⁻¹ |  |  | Chk (R382A) (enzyme) MPTQRWAPGTQCMTKCENSRPKPGELAFRKGDMVTILEACEDKSWYRAKHHSSGQEGLLAAAALRQREALSTDPKLSLMPWFHGKISGQEAIQQLQPPEDGLFLVRESARHPGDYVLCVSFGRDVIHYRVLHRDGHLTIDEAVCFCNLMDMVEHYTRDKGAICTKLVKPKRKQGAKSAEEELAKAGWLLDLQHLTLGAQIGEGEFGAVLQGEYLGQKVAVKNIKCDVTAQAFLDETAVMTKLQHRNLVRLLGVILHHGLYIVMEHVSKGNLVNFLRTRGRALVSTSQLLQFALHVAEGMEYLESKKLVHRDLAARNILVSEDLVAKVSDFGLAKAELRKGLDSSRLPVKWTAPEALKNGRFSSKSDVWSFGVLLWEVFSYGAAPYPKMSLKEVSEAVEKGYRMEPPDSCPGPVHTLMGSCWEAEPSRRPPFRKIVEKLGRELRSVGVAAPAGGQEAEGSAPTRSQDPGSGSHHHHHH |
|  |  | 1270 nM | Csk-Chk chimera (enzyme) MSAIQAAWPSGTECIAKYNFHGTAEQDLPFCKGDVLTIVAVTKDPNWYKAKNKVGREGIIPANYVQKREGVKAGTKLSLMPWFHGKITREQAERLLYPPETGLFLVRESTNYPGDYTLCVSCDGKVEHYRIMYHASKLSIDEEVYFENLMQLVEHYTSDADGLCTRLIKPKVMEGTVAAQDLTLGAQIGEGEFGAVLQGEYLGQKVAVKNIKCDVTAQAFLDETAVMTKMQHENLVRLLGVILHQGLYIVMEHVSKGNLVNFLRTRGRALVNTAQLLQFSLHVAEGMEYLESKKLVHRDLAARNILVSEDLVAKVSDFGLAKAERKGLDSSRLPVKWTAPEALKHGKFTSKSDVWSFGVLLWEVFSYGRAPYPKMSLKEVSEAVEKGYRMEPPEGCPGPVHVLMSSCWEAEPARRPPFRKLAEKLAREL |

Continued, binder first:

| Binder | koff (Hck (2PA-YEEI) [1]) | Kd (Hck (2PA-YEEI) [2]) | Kd (Hck (2PA-YEEI) [3]) |
| --- | --- | --- | --- |
| Chk (K387A) (enzyme) MPTQRWAPGTQCMTKCENSRPKPGELAFRKGDMVTILEACEDKSWYRAKHHSSGQEGLLAAAALRQREALSTDPKLSLMPWFHGKISGQEAIQQLQPPEDGLFLVRESARHPGDYVLCVSFGRDVIHYRVLHRDGHLTIDEAVCFCNLMDMVEHYTRDKGAICTKLVKPKRKQGAKSAEEELAKAGWLLDLQHLTLGAQIGEGEFGAVLQGEYLGQKVAVKNIKCDVTAQAFLDETAVMTKLQHRNLVRLLGVILHHGLYIVMEHVSKGNLVNFLRTRGRALVSTSQLLQFALHVAEGMEYLESKKLVHRDLAARNILVSEDLVAKVSDFGLAKAELRKGLDSSRLPVKWTAPEALKNGRFSSKSDVWSFGVLLWEVFSYGRAPYPAMSLKEVSEAVEKGYRMEPPDSCPGPVHTLMGSCWEAEPSRRPPFRKIVEKLGRELRSVGVAAPAGGQEAEGSAPTRSQDPGSGSHHHHHH | 0.00036 s⁻¹ |  |  |
| Chk (R280A) (enzyme) MPTQRWAPGTQCMTKCENSRPKPGELAFRKGDMVTILEACEDKSWYRAKHHSSGQEGLLAAAALRQREALSTDPKLSLMPWFHGKISGQEAIQQLQPPEDGLFLVRESARHPGDYVLCVSFGRDVIHYRVLHRDGHLTIDEAVCFCNLMDMVEHYTRDKGAICTKLVKPKRKQGAKSAEEELAKAGWLLDLQHLTLGAQIGEGEFGAVLQGEYLGQKVAVKNIKCDVTAQAFLDETAVMTKLQHRNLVRLLGVILHHGLYIVMEHVSKGNLVNFLRTRGAALVSTSQLLQFALHVAEGMEYLESKKLVHRDLAARNILVSEDLVAKVSDFGLAKAELRKGLDSSRLPVKWTAPEALKNGRFSSKSDVWSFGVLLWEVFSYGRAPYPKMSLKEVSEAVEKGYRMEPPDSCPGPVHTLMGSCWEAEPSRRPPFRKIVEKLGRELRSVGVAAPAGGQEAEGSAPTRSQDPGSGSHHHHHH | 0.00024 s⁻¹ | 35 nM |  |
| Chk (R278A) (enzyme) MPTRRWAPGTQCITKCEHTRPKPGELAFRKGDVVTILEACENKSWYRVKHHTSGQEGLLAAGALREREALSADPKLSLMPWFHGKISGQEAVQQLQPPEDGLFLVRESARHPGDYVLCVSFGRDVIHYRVLHRDGHLTIDEAVFFCNLMDMVEHYSKDKGAICTKLVRPKRKHGTKSAEEELARAGWLLNLQHLTLGAQIGEGEFGAVLQGEYLGQKVAVKNIKCDVTAQAFLDETAVMTKMQHENLVRLLGVILHQGLYIVMEHVSKGNLVNFLRTAGRALVNTAQLLQFSLHVAEGMEYLESKKLVHRDLAARNILVSEDLVAKVSDFGLAKAERKGLDSSRLPVKWTAPEALKHGKFTSKSDVWSFGVLLWEVFSYGRAPYPKMSLKEVSEAVEKGYRMEPPEGCPGPVHVLMSSCWEAEPARRPPFRKLAEKLARELRSAGAPASVSGQDADGSTSPRSQEP | 0.000195 s⁻¹ | 13 nM |  |
| Chk (R276A) (enzyme) MPTRRWAPGTQCITKCEHTRPKPGELAFRKGDVVTILEACENKSWYRVKHHTSGQEGLLAAGALREREALSADPKLSLMPWFHGKISGQEAVQQLQPPEDGLFLVRESARHPGDYVLCVSFGRDVIHYRVLHRDGHLTIDEAVFFCNLMDMVEHYSKDKGAICTKLVRPKRKHGTKSAEEELARAGWLLNLQHLTLGAQIGEGEFGAVLQGEYLGQKVAVKNIKCDVTAQAFLDETAVMTKMQHENLVRLLGVILHQGLYIVMEHVSKGNLVNFLATRGRALVNTAQLLQFSLHVAEGMEYLESKKLVHRDLAARNILVSEDLVAKVSDFGLAKAERKGLDSSRLPVKWTAPEALKHGKFTSKSDVWSFGVLLWEVFSYGRAPYPKMSLKEVSEAVEKGYRMEPPEGCPGPVHVLMSSCWEAEPARRPPFRKLAEKLARELRSAGAPASVSGQDADGSTSPRSQEP | 0.000208 s⁻¹ | 56 nM |  |

From publication PMC5547543 (2017)
